We go through 9 substances from paper PMC3045617.

For orientation: Kd means the constant that tells how readily two partners part at equilibrium.

Holding throughout (test): EMSA
(In general: Mobility shift assays separate free from complexed probe on a gel.)

The target of data set [1] is T1, GlrR-His10 (E. coli) (Escherichia coli) (UniProt P0AFU4).
T1 sequence: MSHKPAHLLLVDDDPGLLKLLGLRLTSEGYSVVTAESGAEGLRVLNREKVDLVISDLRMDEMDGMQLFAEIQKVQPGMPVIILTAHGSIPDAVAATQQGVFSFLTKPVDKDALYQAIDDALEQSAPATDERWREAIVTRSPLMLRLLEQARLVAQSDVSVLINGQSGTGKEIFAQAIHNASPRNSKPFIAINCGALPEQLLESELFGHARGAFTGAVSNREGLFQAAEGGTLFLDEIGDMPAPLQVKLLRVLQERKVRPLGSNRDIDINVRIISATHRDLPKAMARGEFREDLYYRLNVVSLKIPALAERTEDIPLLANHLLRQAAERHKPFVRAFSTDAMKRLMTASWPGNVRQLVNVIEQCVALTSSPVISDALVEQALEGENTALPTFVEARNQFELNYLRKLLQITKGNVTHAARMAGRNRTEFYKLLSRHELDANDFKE

Data set [2] concerns GlrR-His10 (E. coli) (Escherichia coli).
The test system of data set [3] is GlrR-His10 (Y. pseudotuberculosis) (Yersinia pseudotuberculosis), ORF:f09f451a.
The target of a further data set is IHF (UniProt P0A6X7+P0A6Y1).
UniProt P0A6X7, sequence (P0A6X7 2-99, chain 1 of 2): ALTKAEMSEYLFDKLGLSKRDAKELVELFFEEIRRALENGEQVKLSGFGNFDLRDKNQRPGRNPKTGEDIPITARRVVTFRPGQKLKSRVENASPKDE
UniProt P0A6X7, sequence (P0A6Y1 whole entry, chain 2 of 2): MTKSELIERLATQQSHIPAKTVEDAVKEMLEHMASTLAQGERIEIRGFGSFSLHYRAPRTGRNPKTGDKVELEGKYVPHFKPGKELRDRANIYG
Data set [4] deals with GlrR-His10 (Y. pseudotuberculosis) (Yersinia pseudotuberculosis).

As to “ATTAATGCAGCTGGCACGACAGGTTTCCCGACTGGAAAGCGGGCAGTGAGCGCAACGCAATTAATGTGAGTTAGCTCACTCATTAGGCACCCCAGGCTTTACACTTTATGCTTCCGGCTCGTATGTTGTGTGGAATTGTGAGCGGATAACAATTTCACACAGGAAACAGCTATGACCATGATTACGGATTCACTGGCCGT (double strand) [lacZ promoter 200 bp control]”, the binding entry in data set [1] is “no binding”. Consider “Y. pseudotuberculosis glmY promoter (-257 to +22)”, for which, in data set [2], the Kd was 290 nM.

Substance “S. typhimurium glmY promoter (-242 to +22)” registered a Kd in data set [2] of 230 nM. On the same count and under the same terms, the value for “S. typhimurium glmZ promoter (-242 to +22)” was 370 nM. Regarding “GCTCTAGAATAAGTCGGTGAATGAGCCACTGGTTACTATTATGCAGTAACTGTGCCAATAAAGAAAATAGTTTGGTAACGTACTGATTATACGTTGCTTTGAGGGGTTTATGTCTCCTCCGCTGTTTGAATGTAAATCAGCCACTGTGTCGCTAAAAAGAGACAACTTAAGATAAACTTATTAGATAATATTAAAATCAATGAGTTAAGTGTCGCCAGAAAGCGACACGGCAAACCACCCATTGTCGTGATTTACAGACACAAAAAAGGTCGACGCGTGC (double strand) [E. coli glmY promoter (-238 to +22)]”, the binding entry (in data set [3]; in data set [1]; in the data set with IHF) was “binds” in each case. In data set [1], this substance displayed a Kd of 360 nM. In data set [2], “Y. pseudotuberculosis glmZ promoter (-303 to +22)” showed a Kd of 370 nM. Further, the binding signal (fold higher protein than E. coli GlrR) in data set [4] amounted to 4.

In turn, “GCACGCGTCGACGTGTTGCCATTATGATTTGTTGGCGATATCCCAGGCTTCATTTGTCGCTATTCGGTGACGAGTAATCTATTGATTTATAATCACTTTGTAAAAAGCATCCTGTTCTGTCTCCACCGGGCGACACGCTAAAACCTCGCCAGCGGCGGGGGGATGACAATCGCGTGAATTCTCTACGTTTTTTTAATGCCTGCGCCTGTTTTTTAGCGGTGCAAAGATGGCACGTTATGTGCAATAATGTACGGGTAGATGCTCATTCCATCTCTTATCTAGAGACG (double strand) [S. typhimurium glmZ promoter (-242 to +22)]” had a Kd in data set [1] of 370 nM. In data set [2], E. coli glmY promoter (-238 to +22) showed a Kd of 360 nM. For “CGTCTCTAGACATAAGAAGGTGAATGAGCCACTGGTTACCATTATGCAGTAATTGTGCCAACATTCAAAAGAATTTGTTAACATAATGATAGATATGAAAAATATCGTTATTCATGCTAAAAATGGCTCTGTCTGTTTTTTGCCCTTTCTGTCGCCAATCAGCAACACCTGCAACACCTAAAAATAAAACAATTTAAAATCAAATAGTTAAATGTCTCTTTTTGGCGACAACCTATCCCCCACTCATGTCGGGATTTCCCGACACTTTAATCTTGGTCGACGCGTGC (double strand) [S. typhimurium glmY promoter (-242 to +22)]”, in data set [1], the Kd turned out to be 230 nM.
